Assay [1] addresses T1, recombinant His-tagged N-terminal domain of human DLL3 (human, UniProt Q9NYJ7 27-175, limits assumed).
T1 construct: also called DLL3 N-terminal domain
T1 sequence: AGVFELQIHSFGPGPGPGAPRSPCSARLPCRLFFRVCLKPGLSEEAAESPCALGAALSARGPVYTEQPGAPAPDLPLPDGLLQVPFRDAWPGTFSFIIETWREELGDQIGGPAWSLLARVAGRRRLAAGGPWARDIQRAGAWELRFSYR
In words: SPR (Biacore 8K), 37 C, antibody captured on anti-mouse Fc. The text has this: (§1) The binding kinetics of different anti-DLL3 antibodies to recombinant proteins of different domains of human DLL3 were studied by surface plasmon resonance (SPR) using a Biacore™ 8K instrument. These anti-DLL3 antibodies were produced from mouse hybridomas, and each included a heavy chain variable region and light chain variable region described herein. Briefly, antibodies recognizing human IgG Fc and antibodies recognizing mouse IgG Fc were immobilized on different channels of a Biacore™ 8K chip to allow simultaneous analysis of human and murine anti-DLL3 antibodies. Murine anti-DLL3 antibodies were captured on the anti-mouse Fc channel of the Biacore chip. The human anti-DLL3 antibody from Stemcentrx (San Francisco, Calif.) was used as a control and was captured onto anti-human Fc channel of the Biacore™ chip. Different concentrations of DLL3 ECD, DLL3 N-terminal domain, EGF2-6, EGF3-6, EGF4-6, or EGF5-6 domains of DLL3 were injected. Experiments were performed at 37° C. Biacore™ 8K evaluation software was used for all data analysis. To obtain kinetic rate constants double-referenced data were fit to a 1:1 interaction model using Biacore™ 8K Evaluation software (GE Healthcare, Marlborough, Mass.). The equilibrium binding constant KD was determined by the ratio of binding rate constants kd/kₐ. […]
In general terms: Surface plasmon resonance follows binding to a sensor surface in real time, without labels.

The target in assay [2] is T2, recombinant His-tagged EGF5-6 domains of human DLL3 (human, UniProt Q9NYJ7 391-492, limits assumed).
T2 sequence: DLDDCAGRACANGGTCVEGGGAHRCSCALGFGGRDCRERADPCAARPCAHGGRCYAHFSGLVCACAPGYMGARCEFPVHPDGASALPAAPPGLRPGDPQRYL
Described as above.
Excerpt: as §1

The target in assay [3] is T3, extracellular domain (ECD) of human DLL3 (AdipoGen Life Sciences) (human, UniProt Q9NYJ7 27-492).
T3 construct: Bought and further purified by size exclusion chromatography; also called hDLL3 ECD; DLL3 ECD
T3 sequence: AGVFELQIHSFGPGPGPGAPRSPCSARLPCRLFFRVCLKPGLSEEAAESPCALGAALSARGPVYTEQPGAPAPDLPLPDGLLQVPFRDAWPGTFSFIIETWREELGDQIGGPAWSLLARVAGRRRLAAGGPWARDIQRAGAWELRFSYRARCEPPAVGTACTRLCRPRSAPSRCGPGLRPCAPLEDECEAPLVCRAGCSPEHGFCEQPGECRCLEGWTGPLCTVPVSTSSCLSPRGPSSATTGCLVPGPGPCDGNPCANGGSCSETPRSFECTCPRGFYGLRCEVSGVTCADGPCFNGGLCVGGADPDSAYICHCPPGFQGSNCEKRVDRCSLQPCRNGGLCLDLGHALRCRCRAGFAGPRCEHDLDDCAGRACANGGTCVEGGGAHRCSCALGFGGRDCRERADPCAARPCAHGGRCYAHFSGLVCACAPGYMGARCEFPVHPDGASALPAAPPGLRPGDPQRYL
In words: SPR (Biacore 8K), 37 C, antibody captured on anti-mouse Fc; same values as in Table 36. From the text:
(§2) The binding kinetics of different anti-DLL3 antibodies to recombinant proteins of different domains of human DLL3 were studied by surface plasmon resonance (SPR) using a Biacore™ 8K instrument. These anti-DLL3 antibodies were produced from mouse hybridomas, and each included a heavy chain variable region and light chain variable region described herein. Briefly, antibodies recognizing human IgG Fc and antibodies recognizing mouse IgG Fc were immobilized on different channels of a Biacore™ 8K chip to allow simultaneous analysis of human and murine anti-DLL3 antibodies. Murine anti-DLL3 antibodies were captured on the anti-mouse Fc channel of the Biacore chip. The human anti-DLL3 antibody from Stemcentrx (San Francisco, Calif.) was used as a control and was captured onto anti-human Fc channel of the Biacore™ chip. Different concentrations of DLL3 ECD, DLL3 N-terminal domain, EGF2-6, EGF3-6, EGF4-6, or EGF5-6 domains of DLL3 were injected. Experiments were performed at 37° C. Biacore™ 8K evaluation software was used for all data analysis. To obtain kinetic rate constants double-referenced data were fit to a 1:1 interaction model using Biacore™ 8K Evaluation software (GE Healthcare, Marlborough, Mass.). The equilibrium binding constant KD was determined by the ratio of binding rate constants kd/kₐ.
Table 36 lists the calculated binding kinetics (KD). […]

In assay [4] the target is T4, recombinant His-tagged EGF2-6 domains of human DLL3 (human, UniProt Q9NYJ7 274-492, limits assumed).
T4 sequence: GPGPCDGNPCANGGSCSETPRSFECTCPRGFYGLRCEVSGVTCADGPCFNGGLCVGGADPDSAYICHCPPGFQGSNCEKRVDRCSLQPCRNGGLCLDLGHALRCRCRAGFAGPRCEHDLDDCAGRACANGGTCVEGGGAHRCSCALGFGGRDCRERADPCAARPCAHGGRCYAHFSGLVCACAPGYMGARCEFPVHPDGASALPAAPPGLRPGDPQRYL
In words: SPR (Biacore 8K), 37 C, antibody captured on anti-mouse Fc, DLL3 domain construct injected, 1:1 fit.
Excerpt: as §2
(§3) The binding epitope on DLL3 by the anti-DLL3 antibody which included a heavy chain variable region and light chain variable region of clone 5E7 (see Table 2) was identified by SPR analysis at 37° C.

Assay [5] has as its target T5, recombinant His-tagged EGF3-6 domains of human DLL3 (human, UniProt Q9NYJ7 312-492, limits assumed).
T5 sequence: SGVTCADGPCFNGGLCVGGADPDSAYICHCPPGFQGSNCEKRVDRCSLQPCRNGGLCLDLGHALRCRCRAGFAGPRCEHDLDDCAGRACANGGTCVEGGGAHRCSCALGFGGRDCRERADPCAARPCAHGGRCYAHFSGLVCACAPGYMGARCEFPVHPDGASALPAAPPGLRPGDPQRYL
The assay is described as above.
Excerpt: as §2, §3

In assay [6] the target is T6, recombinant His-tagged EGF4-6 domains of human DLL3 (human, UniProt Q9NYJ7 353-492, limits assumed).
T6 sequence: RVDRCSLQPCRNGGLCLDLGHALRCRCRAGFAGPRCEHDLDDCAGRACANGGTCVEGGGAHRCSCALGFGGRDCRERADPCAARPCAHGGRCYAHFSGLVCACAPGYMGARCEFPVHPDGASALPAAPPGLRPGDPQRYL
The assay is described as above.
Excerpt: as §2, §3

B1: murine anti-DLL3 antibody clone 5E7 (antibody, V domains shown)
VH: EVQLQQSGAELVRPGASVKLSCTASGFNIKDDYIHWVKQWPEQGLEWIGWIDSENGDTEYASKFQGKATMTADTSSNTAYLQLSGLTSEDTAVYYCTTSSYYSYDLFVYWGQGTLVTVSA
VL: DVLMTQTPLTLSVPIGQPASISCKSSQSLLHSNGKTYLNWLLQRPGQSPKLLIYLVSKLESGVPDRFSGSGSGTDFTLKISRVEAEDLGVYYCLQTTHLYTFGGGTKLEIK
notes: Murine antibody produced from a mouse hybridoma, captured on anti-mouse Fc in SPR; also called m5E7; murine 5E7
As a reminder, the Kd is the constant that tells how readily two partners part at equilibrium. In general, koff refers to the first-order rate constant of dissociation. As usually defined, the kon is a measure of how fast the partners come together. B1: the binding result in assay [1] and in assay [2] was “no binding” throughout. The Kd in assay [3] stood at 0.203 nM; in assay [4], 0.669 nM; in assay [5] it was 0.184 nM; in assay [6] it was 1.12 nM. Moreover, the off-rate (koff) in assay [3] was 6.47e-05 s⁻¹; in assay [4], 0.000382 s⁻¹; in assay [5], 0.000264 s⁻¹; in assay [6] it was 0.00061 s⁻¹. The on-rate (kon) in assay [4] was determined as 570000 M⁻¹ s⁻¹; in assay [5], 1.45e+06 M⁻¹ s⁻¹; in assay [6], 546000 M⁻¹ s⁻¹.

The values are drawn from patent US20210221894A1 (DRAGONFLY THERAPEUTICS, published 2021).
